The target in this experiment is HIV-1 Env of the 208-virus panel (Env-pseudoviruses). In words: cell-based or functional assay.

B1: VRC07-523LS.v14 (antibody, V domains shown)
VH: QVRLSQSGGQMKKPGDSMRISCDASGYEFINCPINWIRLAPGKRPEWMGWMKPRFGAVSYARQLQGRVTMTRQLSQDPDDPDWGTAFLELRSLTSDDTAVYFCTRGKYCTARDYYNWDFEHWGQGTPVTVSS
VL: LTQSPGTLSLSPGETAIISCDTSQYGSLAWYQQRPGQAPRLVIYSGSTRAAGIPDRFSGSRWGPDYNLTISNLESGDFGVYYCQQYEFFGQGTKVQVDI
On to B1, for which the neutralization of Env-pseudoviruses on TZM-bl cells, share of the panel at IC80 less than 1 µg/ml (% of the 208-virus panel) was 92.

B2: VRC07-523LS.v32 (antibody, V domains shown)
VH: QVRLSQSGGQMKKPGDSMRISCSASGYEFINCPINWIRLAPGKRPEWMGWMKPRFGAVSYARQLQGRVTMTRQLSQDPDDPDWGTAFLELRSLTSDDTAVYFCTRGSYCTARDYYNWDFEHWGQGTPVTVSS
VL: LTQSPGTLSLSPGETAIISCSTSQYGSLAWYQQRPGQAPRLVIYSGSTRAAGIPDRFSGSRWGPDYNLTISNLESGDFGVYYCQQYEFFGQGTKVQVDI
Molecule B2 returned a neutralization of Env-pseudoviruses on TZM-bl cells, share of the panel at IC80 less than 1 µg/ml (% of the 208-virus panel) of 92.

B3: N6LS.C1 (antibody, V domains shown)
VH: RAHLVQSGTAMKKPGASVRVSCQTSGYTFTAHILFWFRQAPGRGLEWVGWIKPQYGAVNFGGGFRDRVTLTRQLSQDPDDPDWGIAYMDIDGLKPDDTAVYYCARDRSYGDSSWALDAWGQGTTVVVSA
VL: YIHVTQSPSSLSVSIGDDVTINCQTSQGVGSDLHWYQHKPGRAPKLLIHHTSSVEDGVPSRFSGSGFHTSFNLTISDLQADDIATYYCQVLQFFGRGSRLHIKR
B3: the neutralization of Env-pseudoviruses on TZM-bl cells, share of the panel at IC80 <1 µg/ml (% of 208 viruses) was greater than 73 and the neutralization of Env-pseudoviruses on TZM-bl cells, share of the panel at IC80<1 µg/ml (% of viruses (208-virus panel)) was found to be 73.

B4: N6LS.C30 (antibody, V domains shown)
VH: RAHLVQSGTAMKEPGASVRVSCQTSGYTFTAHILFWFRQAPGRGLEWVGWIKPQYGAVNFGGGFRDRVTLTRQLSQDPDDPDWGIAYMDIRGLKPDDTAVYYCARDRSYGDSSWALDAWGQGTTVVVSA
VL: YIHVTQSPSSLSVSIGDEVTINCQTSQGVGSDLHWYQHKPGRAPKLLIHHTSSVEDGVPSRFSGSGFHTSFNLTISDLQADDIATYYCQVLQFFGRGSRLHIKR
Regarding B4, the neutralization of Env-pseudoviruses on TZM-bl cells, share of the panel at IC80 <1 µg/ml (% of 208 viruses) is greater than 73 and the neutralization of Env-pseudoviruses on TZM-bl cells, share of the panel at IC80<1 µg/ml (% of viruses (208-virus panel)) was 77.

Source of the values: US20250197483A1.
